One molecule from patent US20220332804A1 (CSL INNOVATION, published 2022) can be followed below.

Holding throughout (experiment): SPR, KD relative to WT C2;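 note: biacore SPR at 37 °C, anti-C2 mAbs captured via immobilised goat anti-human IgG, C2 alanine or serine surface mutants as analytes, 1:1 model fitted, double-referenced sensograms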
Background: Surface plasmon resonance follows binding to a sensor surface in real time, without labels.

The target in experiment [1] is T1, human C2 N268A (human, UniProt P06681 21-752).
T1 sequence: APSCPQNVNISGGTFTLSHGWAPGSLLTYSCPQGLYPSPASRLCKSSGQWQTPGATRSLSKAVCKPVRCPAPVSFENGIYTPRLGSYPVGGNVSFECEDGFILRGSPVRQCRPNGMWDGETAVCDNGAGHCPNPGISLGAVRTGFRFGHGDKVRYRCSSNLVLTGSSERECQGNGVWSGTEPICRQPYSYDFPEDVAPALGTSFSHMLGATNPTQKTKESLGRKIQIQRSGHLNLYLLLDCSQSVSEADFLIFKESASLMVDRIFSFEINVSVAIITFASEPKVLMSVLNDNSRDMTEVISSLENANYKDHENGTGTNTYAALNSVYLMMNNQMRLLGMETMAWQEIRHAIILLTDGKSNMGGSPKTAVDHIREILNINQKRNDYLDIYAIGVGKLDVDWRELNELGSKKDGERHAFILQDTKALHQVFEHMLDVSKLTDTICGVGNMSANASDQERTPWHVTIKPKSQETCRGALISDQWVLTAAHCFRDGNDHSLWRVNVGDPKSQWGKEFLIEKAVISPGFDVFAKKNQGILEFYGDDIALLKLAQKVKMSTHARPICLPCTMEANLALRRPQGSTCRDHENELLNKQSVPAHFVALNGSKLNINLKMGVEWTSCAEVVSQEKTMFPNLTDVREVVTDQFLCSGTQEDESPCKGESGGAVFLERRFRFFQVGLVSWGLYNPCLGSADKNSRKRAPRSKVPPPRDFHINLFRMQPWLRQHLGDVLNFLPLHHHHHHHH

Experiment [2] addresses T2, human C2 D431A (human, UniProt P06681 21-752).
T2 sequence: T1 sequence with A248N, D411A

Experiment [3] concerns the target T3, human C2 G707A (human, UniProt P06681 21-752).
T3 sequence: T1 sequence with A248N, G687A

Experiment [4] has as its target T4, human C2 S469A (human, UniProt P06681 21-752).
T4 sequence: T1 sequence with A248N, S449A

Numbering of substitutions follows the chain as printed.

B1: RF16-226 (antibody, human IgG4 S228P, lambda)
heavy: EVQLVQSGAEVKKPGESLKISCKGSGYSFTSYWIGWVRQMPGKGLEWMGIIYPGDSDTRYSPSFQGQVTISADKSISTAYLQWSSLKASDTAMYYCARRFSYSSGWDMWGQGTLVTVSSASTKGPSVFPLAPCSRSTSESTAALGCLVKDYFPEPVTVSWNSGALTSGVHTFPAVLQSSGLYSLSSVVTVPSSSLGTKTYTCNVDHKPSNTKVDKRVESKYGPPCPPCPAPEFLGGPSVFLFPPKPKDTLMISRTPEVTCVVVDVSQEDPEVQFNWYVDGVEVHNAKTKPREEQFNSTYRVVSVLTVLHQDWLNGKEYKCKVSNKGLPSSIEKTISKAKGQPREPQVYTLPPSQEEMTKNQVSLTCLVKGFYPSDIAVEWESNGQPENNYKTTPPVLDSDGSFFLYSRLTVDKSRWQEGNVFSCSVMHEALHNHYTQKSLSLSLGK
light: SYELTQPPSVSVSPGQTARITCSGDALTSKYVAWYQQKSGLAPLLVIYEDTRRPSGIPAKFSGSSSGSVATLTISGAHGDDEADYYCYSTDASGHQRVFGGGTKLTVLSQPKAAPSVTLFPPSSEELQANKATLVCLISDFYPGAVTVAWKADGSPVKAGVETTKPSKQSNNKYAASSYLSLTPEQWKSHRSYSCQVTHEGSTVEKTVAPTECS
notes: pH-dependent anti-C2 antibody from a phage display library; also called WT
Consider B1, for which the Fold diff in experiment [1] turned out to be 1 fold; in experiment [2] it was 4 fold; in experiment [3] it was 2 fold; in experiment [4] it was 3 fold.
